# Experimental data: US20250011443A1 (published 2025)
# T1: SR344 (N-terminal 1st to 344th amino acids of soluble human IL-6R) (human, UniProt P08887 20-344, limits assumed)
# T1 construct: also called recombinant soluble human IL-6 receptor; soluble human IL-6 receptor
# T1 sequence (looked up): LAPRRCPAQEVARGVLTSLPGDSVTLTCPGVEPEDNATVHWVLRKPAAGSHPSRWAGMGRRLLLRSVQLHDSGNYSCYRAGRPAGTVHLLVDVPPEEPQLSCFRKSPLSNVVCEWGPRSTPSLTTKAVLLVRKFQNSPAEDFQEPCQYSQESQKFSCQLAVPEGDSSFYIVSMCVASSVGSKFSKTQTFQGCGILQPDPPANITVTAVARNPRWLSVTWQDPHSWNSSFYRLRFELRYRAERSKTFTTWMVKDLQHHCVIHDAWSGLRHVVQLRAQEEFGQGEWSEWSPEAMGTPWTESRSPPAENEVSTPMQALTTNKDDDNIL
# Tests used:
# [1] = biological target: T1, SR344 (N-terminal 1st to 344th amino …); test: SPR (Biacore T100), antibody captured on Protein A/G, SR344 as analyte, 37 C
# Method: A sensor chip was prepared by immobilizing about 3,000 RU of Protein A/G onto CM5 (Biacore) with the amine coupling method. […] The running buffer used was HBS-EP+, and the flow rate was 20 μl/min. […] After three minutes of interaction, the solution was switched with HBS-EP+(Biacore), and the dissociation phase was monitored for ten minutes. After measurement of the dissociation phase, the sensor chip was regenerated by washing with 10 μl of 10 mM glycine-HCl (pH 1.5). The association, dissociation, and regeneration constituted one analytic cycle. All experiments were carried out at 37° C.
# All measurements described hereinafter in the Examples were carried out at 37° C. to kinetically analyze the antigen-antibody reaction using SR344 and protein A/G.
# [2] = biological target: T2, soluble GPC3 core polypeptide (human, UniProt P51654 25-563); test: competitive ELISA, soluble GPC3 core polypeptide on the plate, competitor biotinylated GPC3-H2L2
# T2 construct: also called soluble GPC3 core protein; glypican 3 (antigen)
# T2 sequence (P51654 other isoform, or with tags, fused parts or gaps limits assumed): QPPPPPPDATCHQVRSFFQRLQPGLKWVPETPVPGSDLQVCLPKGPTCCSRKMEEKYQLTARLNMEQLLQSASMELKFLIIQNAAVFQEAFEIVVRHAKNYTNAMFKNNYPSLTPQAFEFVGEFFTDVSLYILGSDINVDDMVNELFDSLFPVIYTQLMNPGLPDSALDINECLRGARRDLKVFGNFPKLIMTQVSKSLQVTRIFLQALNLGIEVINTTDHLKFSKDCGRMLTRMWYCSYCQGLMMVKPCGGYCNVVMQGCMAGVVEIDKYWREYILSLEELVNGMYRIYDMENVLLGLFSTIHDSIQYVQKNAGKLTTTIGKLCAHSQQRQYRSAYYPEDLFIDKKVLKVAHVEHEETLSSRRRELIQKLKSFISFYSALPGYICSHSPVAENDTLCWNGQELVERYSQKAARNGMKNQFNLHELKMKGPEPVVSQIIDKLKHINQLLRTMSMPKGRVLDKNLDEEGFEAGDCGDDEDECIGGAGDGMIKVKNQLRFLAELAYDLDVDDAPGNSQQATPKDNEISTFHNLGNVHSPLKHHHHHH
# Method: The binding activities of prepared antibodies were determined by competitive ELISA. […] The plates were incubated at 4° C. overnight to immobilize the soluble GPC3 core polypeptide onto the plates. After washing the plates immobilized with the soluble GPC3 core polypeptide three times with washing buffer using SkanWasher 400 (Molecular Devices), 200 μl of blocking buffer was added thereto. The plates were incubated at 4° C. for 30 minutes or more for blocking. The plates immobilized with the soluble GPC3 core polypeptide and blocked were washed three times with washing buffer using SkanWasher 400. […] The plates were incubated at room temperature for one hour, and then washed five times with washing buffer using SkanWasher 400 (Molecular Devices). 100 μl of goat anti streptavidin alkaline phosphatase (Zymed) 20,000-times diluted with substrate buffer was added to each well. The plates were incubated at room temperature for one hour, and then washed five times with washing buffer using SkanWasher 400. Phosphatase Substrate (Sigma) was prepared at 1 mg/ml using substrate buffer, and added to each well (100 μl). The plates were incubated for one hour.
fold weaker affinity for SR344 than for rhIL-6sR [1] [fold],binding result [2],Binder
2,,"RDC_23 (antibody, V domains shown, also called RDC_5H / RDC_11L) VH: QVQLQESGPGLVRPSQTLSLTCTVSGYSITSDHAWSWVRQPPGRGLEWIGYISYSGITTYNPSLKSRVTMLRDTSKNQFSLRLSSVTAADTAVYYCARVLARITAMDYWGQGSLVTVSS VL: DIQMTQSPSSLSASVGDRVTITCRASQDISSYLNWYQQKPGKAPKLLIYYTSRLHSGVPSRFSGSGSGTDFTFTISSLQPEDIATYYCGQGNRLPYTFGQGTKVEIK"
,binds,"GPC3_H2L2 (antibody, human IgG1, kappa, V domains shown) VH: QVQLVQSGAEVKKPGASVKVSCKASGYTFTDYEMHWVRQAPGQGLEWMGALDPKTGDTAYSQKFKGRVTLTADKSTSTAYMELSSLTSEDTAVYYCTRFYSYTYWGQGTLVTVSS VL: DVVMTQSPLSLPVTPGEPASISCRSSQSLVHSNRNTYLHWYLQKPGQSPQLLIYKVSNRFSGVPDRFSGSGSGTDFTLKISRVEAEDVGVYYCSQNTHVPPTFGQGTKLEIKR"
,binds,"GPC3_H3L3 (antibody, human IgG1, kappa, V domains shown) VH: QVQLVQSGAEVKKPGASVTVSCKASGYTFTDYEMHWIRQPPGEGLEWIGAIDPKTGDTAYSESFQDRVTLTADKSTSTAYMELSSLTSEDTAVYYCTRFYSYTYWGQGTLVTVSS VL: DIVMTQSPLSLPVTPGEPASISCQASESLVHSNRNTYLHWYLQKPGQSPQLLIYKVSNRFSGVPDRFSGSGSGTDFTLKISRVEAEDVGVYYCSQNTHVPPTFGQGTKVEIER"
